# Test results as given in publication PMC3778711, “The central role of mosquito cytochrome P450 CYP6Zs in insecticide detoxification revealed by functional expression and structural modelling” (Biochemical Journal, 2013).
# T1: CYP6Z2 (AgCYP6Z2) (Anopheles gambiae, UniProt A8I285)
# T1 construct: with NADPH--cytochrome P450 reductase
# T1 sequence (A8I285 1-492): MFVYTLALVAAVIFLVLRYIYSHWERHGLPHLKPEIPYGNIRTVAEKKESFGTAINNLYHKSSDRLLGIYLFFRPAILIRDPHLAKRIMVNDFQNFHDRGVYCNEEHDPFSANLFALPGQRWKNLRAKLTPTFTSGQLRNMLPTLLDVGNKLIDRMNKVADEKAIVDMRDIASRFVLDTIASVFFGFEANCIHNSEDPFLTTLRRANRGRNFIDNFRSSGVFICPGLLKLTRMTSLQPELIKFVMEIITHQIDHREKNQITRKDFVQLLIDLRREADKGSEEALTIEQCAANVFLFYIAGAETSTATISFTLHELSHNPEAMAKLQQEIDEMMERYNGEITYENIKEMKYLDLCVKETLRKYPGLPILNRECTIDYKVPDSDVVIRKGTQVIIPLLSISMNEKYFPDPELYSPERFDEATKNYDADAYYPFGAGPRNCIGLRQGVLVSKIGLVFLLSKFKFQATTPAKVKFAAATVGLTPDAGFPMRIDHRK
# T1 sequence (Q86QH5 1-679 partner): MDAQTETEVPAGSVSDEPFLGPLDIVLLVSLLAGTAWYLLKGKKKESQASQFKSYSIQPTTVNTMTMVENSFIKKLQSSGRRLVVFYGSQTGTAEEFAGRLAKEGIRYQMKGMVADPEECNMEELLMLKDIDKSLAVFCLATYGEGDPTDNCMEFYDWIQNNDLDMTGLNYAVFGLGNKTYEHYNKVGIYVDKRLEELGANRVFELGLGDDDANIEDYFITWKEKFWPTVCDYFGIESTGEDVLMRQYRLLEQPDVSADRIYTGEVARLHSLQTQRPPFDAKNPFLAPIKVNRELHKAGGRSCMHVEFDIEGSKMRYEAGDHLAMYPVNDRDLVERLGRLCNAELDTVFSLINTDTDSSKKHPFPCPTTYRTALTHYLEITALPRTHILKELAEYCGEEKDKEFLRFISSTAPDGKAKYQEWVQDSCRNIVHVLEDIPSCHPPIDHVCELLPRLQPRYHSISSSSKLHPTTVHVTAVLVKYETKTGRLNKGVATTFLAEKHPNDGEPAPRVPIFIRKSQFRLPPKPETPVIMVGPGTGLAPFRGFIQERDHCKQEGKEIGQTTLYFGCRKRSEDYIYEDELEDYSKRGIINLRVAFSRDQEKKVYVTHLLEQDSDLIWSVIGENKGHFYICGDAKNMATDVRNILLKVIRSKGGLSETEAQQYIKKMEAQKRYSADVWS
# B1: CYP6Z8 (W(AeR)-CYP6Z8 microsomes; CYP6Z8v1) (Aedes aegypti) (protein)
# chain: MFIYTFALFWLAVAFAIRYIYSYWDRNGLPSIKPHIPYGNLKTVANRTESFGVATCDLYWKSKDRLVGIYLFFRPAVLIRDAHLAQQIMTTDFSHFHDRGVFCNEEVDPFSANLFALAGKRWRNLRNKFTPLFTGGQLRCMMPTILNVGHKLQNVLEPAAKKQEVLEIRELVSRCVLDIIASVFFGFEANCINDPNDAFIQNLRELQYDGFFNNLRAAATFICPELLKLTRISSLSPEMIRFVTDIVTKQIEHREKNNVTRKDFIQLLIDLRREDANNNEATLGLEECAANVFLFYVAGSDTSTSAVAFTLHELTQNVETMEKLQTEIDEMLVKTSGELTYDGIKEMSYLDLCVKETLRKYPGLAILNRECTKSYAVPNSNIVLKKGTQVVIPLLAYGMDEKYFPEPDRYLPERFDKSTKNYDEKAFYPFGEGPRNCIAFRMGVMVSKICLVLLLSRFNFEATRGPKINFTPSTVALLPKGGIPVKISIR
# notes: full-length, no protein modification; codon-optimised gene in S. cerevisiae W(AeR) with Ae. aegypti CPR integrated; microsomes; with NADPH--cytochrome P450 reductase
# Legend:
# CYP6Z2 (AgCYP6Z2) = molecular target: T1, CYP6Z2 (AgCYP6Z2); experiment: reverse-phase HPLC, E. coli membranes; type: biochemical; details: 10 μM substrate, 0.1 mM NADPH with regeneration system, 5 mM MgCl2, 30°C
# [1] = substrate: CCCCCOc1ccc2nc3ccc(=O)cc-3oc2c1; experiment: resorufin fluorescence, yeast microsomes; type: biochemical, Aedes aegypti; details: apparent, 0.1 mM NADPH with regeneration system, 0.1 M phosphate pH 7.4, 30°C, 15 min
# Excerpt: (§1) resorufin fluorescence, yeast microsomes on CYP6Z8 (W(AeR)-CYP6Z8 microsomes; CYP6Z8v1)
# [2] = substrate: CCOc1ccc2nc3ccc(=O)cc-3oc2c1; experiment: resorufin fluorescence, yeast microsomes; type: biochemical, Aedes aegypti; details: apparent, 0.1 mM NADPH with regeneration system, 0.1 M phosphate pH 7.4, 30°C, 15 min
# Excerpt: as §1
# [3] = substrate: O=c1ccc2nc3ccc(OCc4ccccc4)cc3oc-2c1; experiment: resorufin fluorescence, yeast microsomes; type: biochemical, Aedes aegypti; details: apparent, 0.1 mM NADPH with regeneration system, 0.1 M phosphate pH 7.4, 30°C, 15 min
# Excerpt: as §1
# [4] = substrate: CCOc1ccc2ccc(=O)oc2c1; experiment: 7-hydroxycoumarin fluorescence (O-de-ethylation), yeast microsomes; type: biochemical, Aedes aegypti; details: apparent, 0.1 mM NADPH with regeneration system, 0.1 M phosphate pH 7.4, 30°C, 15 min
# Excerpt: 7-hydroxycoumarin fluorescence (O-de-ethylation), yeast microsomes on CYP6Z8 (W(AeR)-CYP6Z8 microsomes; CYP6Z8v1)
# [5] = substrate: OCc1cccc(Oc2ccccc2)c1; experiment: reverse-phase HPLC, yeast microsomes; type: biochemical, Aedes aegypti; details: 0.1 mM NADPH with regeneration system, 5 mM MgCl2, 30°C
Molecule,"reverse-phase HPLC, E. coli membranes (CYP6Z2 (AgCYP6Z2))",Km [1] [µM],kcat [1] [s⁻¹],Km [2] [µM],kcat [2] [s⁻¹],Km [3] [µM],kcat [3] [s⁻¹],Km [4] [µM],kcat [4] [s⁻¹],Km [5] [µM],kcat [5] [s⁻¹]
OCc1cccc(Oc2ccccc2)c1 [PBAlc],demonstrated the ability of CYP6Z2 to metabolize both PBAlc and PBAld,,,,,,,,,,
O=Cc1cccc(Oc2ccccc2)c1 [PBAld],demonstrated the ability of CYP6Z2 to metabolize both PBAlc and PBAld,,,,,,,,,,
B1,,13.96 ± 3.14,0.00217 ± 0.00017,2.39 ± 0.28,0.0198 ± 0.00083,0.13 ± 0.02,0.00162 ± 3.3e-05,5.90 ± 0.90,0.0163 ± 0.00067,15.1 ± 2.9,0.011 ± 0.0005
